Laboratory results published in patent publication EP4729537A1, “B-LACTAMASE-INHIBITING ANTIBODY AND USE THEREOF IN THE TREATMENT AND/OR PREVENTION OF INFECTIONS CAUSED BY B-LACTAMASE-PRODUCING BACTERIA” (priority 2023, dated 2024).
Values joined by “and” are separate entries in the source; they are usually repeats but may differ in a detail not shown here. Equal values may be shown once.

Legend:
[1] = system: O=C(Cc1cccs1)N[C@@H]1C(=O)N2C(C(=O)O)=C(/C=C/c3ccc([N+](=O)[O-])cc3[N+](=O)[O-])CS[C@H]12; experiment: nitrocefin hydrolysis assay with E. coli BL21(DE3) cells expressing the β-lactamase in the periplasm; type: cell-based, Klebsiella pneumoniae; settings: other: E. coli cells, control without antibody (controls of the B2 and B5 runs)
Method: (§1) An in vivo assay was conducted to test the inhibitory capacity of four β-lactamases from three resistant microorganisms: BlaMab from Mycobacterium abscessus, KPC-2 (UNIPROT Q9F663) and OXA-48 (UNIPROT Q6XEC0) from Klebsiella pneumoniae, and VIM-2 (UNIPROT B8QIQ9) from Pseudomonas aeruginosa. The assay utilized BL21(DE3) strain cells of Escherichia coli transformed with the expression vector pET26b(+) along with the gene sequence of each β-lactamase. Cells successfully transformed with the vector and insert were selected using a Kanamycin resistance gene (KanR) present in the vector. […] Additionally, the pET26b(+) vector has an IPTG-inducible promoter to activate the translation of the corresponding β-lactamase. The plasmid also includes a pelB export signal directing the β-lactamase to the periplasmic space of the bacteria for the inhibition assay with Ndis (nanobodies, single-domain antibodies).
(§2) This compound changes color from yellow to red when hydrolyzed by β-lactamase, which can be quantified by measuring absorbance at 490nm.

[2] = system: O=C(Cc1cccs1)N[C@@H]1C(=O)N2C(C(=O)O)=C(/C=C/c3ccc([N+](=O)[O-])cc3[N+](=O)[O-])CS[C@H]12; experiment: as above; type: cell-based, Pseudomonas aeruginosa; settings: other: E. coli cells, control without antibody (controls of the B2 and B5 runs)
Method: as §1, §2

Substance | Km [1] | Km [2]
OXA-48 (UNIPROT Q6XEC0) from Klebsiella pneumoniae (Klebsiella pneumoniae) | 4.48 µM | 
VIM-2 (UNIPROT B8QIQ9) from Pseudomonas aeruginosa (Pseudomonas aeruginosa) |  | 4.35 µM and 6.75 µM
